Where no end group is shown, it is not given here.
B1: Phage-3156 (peptide)
peptide: IQVMCRPAWMCSGF
modifications: cysteine pairing not given here; also: fused to phage pIII, orientation and linker not given here
notes: Clonal phage of the Peptide-180 library, tested as crude supernatant; not shown: fused to pIII of the bacteriophage
B2: Phage-3143 (peptide)
peptide: SVPLCIPEWMCVGF
modifications: cysteine pairing not given here; also: fused to phage pIII, orientation and linker not given here
notes: as for B1
B3: Phage-3147 (peptide)
peptide: FEMFCIPAWMCSGL
modifications: cysteine pairing not given here; also: fused to phage pIII, orientation and linker not given here
notes: as for B1
B4: Phage-3154 (peptide)
peptide: PWIVCKPAWMCTGF
modifications: cysteine pairing not given here; also: fused to phage pIII, orientation and linker not given here
notes: as for B1
B5: Phage-3152 (peptide)
peptide: WDQWCVPKWMCQGF
modifications: cysteine pairing not given here; also: fused to phage pIII, orientation and linker not given here
notes: as for B1
B6: Phage-3144 (peptide)
peptide: HLPRCEPAWMCHGF
modifications: cysteine pairing not given here; also: fused to phage pIII, orientation and linker not given here
notes: as for B1
B7: Phage-3149 (peptide)
peptide: LLPACKPTWMCTGL
modifications: cysteine pairing not given here; also: fused to phage pIII, orientation and linker not given here
notes: as for B1
B8: Phage-3145 (peptide)
peptide: IERSCTPSWMCHGF
modifications: cysteine pairing not given here; also: fused to phage pIII, orientation and linker not given here
notes: as for B1
B9: Phage-3146 (peptide)
peptide: GPIMCQPRWMCEGF
modifications: cysteine pairing not given here; also: fused to phage pIII, orientation and linker not given here
notes: as for B1
B10: Phage-3153 (peptide)
peptide: DMSLCKPPWMCFGF
modifications: cysteine pairing not given here; also: fused to phage pIII, orientation and linker not given here
notes: as for B1
B11: Phage-3155 (peptide)
peptide: VSSMCKPAWMCSGF
modifications: cysteine pairing not given here; also: fused to phage pIII, orientation and linker not given here
notes: as for B1
B12: Phage-3148 (peptide)
peptide: AEYMCIPSWMCHGM
modifications: cysteine pairing not given here; also: fused to phage pIII, orientation and linker not given here
notes: as for B1
B13: Phage-3150 (peptide)
peptide: DAPLCKPQWMCSGF
modifications: cysteine pairing not given here; also: fused to phage pIII, orientation and linker not given here
notes: as for B1
B14: Phage-3151 (peptide)
peptide: FPRLCEPLWMCKGF
modifications: cysteine pairing not given here; also: fused to phage pIII, orientation and linker not given here
notes: as for B1
B15: Phage-3141 (peptide)
peptide: YERVCEPLWMCTGF
modifications: cysteine pairing not given here; also: fused to phage pIII, orientation and linker not given here
B16: Phage-3142 (peptide)
peptide: AGVYCTPMWMCTGF
modifications: cysteine pairing not given here; also: fused to phage pIII, orientation and linker not given here
B17: Phage-3140 (peptide)
peptide: IDTICRPSWMCLGF
modifications: cysteine pairing not given here; also: fused to phage pIII, orientation and linker not given here
B18: Phage-3163 (peptide)
peptide: DIHLCTPNWMCSGF
modifications: cysteine pairing not given here; also: fused to phage pIII, fusion site not given here
B19: Phage-3164 (peptide)
peptide: MDKICSPMWMCLGF
modifications: cysteine pairing not given here; also: fused to phage pIII, fusion site not given here
B20: Phage-3165 (peptide)
peptide: NVHYCVPAWMCNGF
modifications: cysteine pairing not given here; also: fused to phage pIII, fusion site not given here
B21: Phage-3162 (peptide)
peptide: ETALCRPLWMCDWL
modifications: cysteine pairing not given here; also: fused to phage pIII, fusion site not given here
B22: Phage-3161 (peptide)
peptide: NHVQCVPNWMCSGF
modifications: cysteine pairing not given here; also: fused to phage pIII, fusion site not given here
B23: Phage-3158 (peptide)
peptide: IVPYCMPQWMCSGF
modifications: cysteine pairing not given here; also: fused to phage pIII, orientation and linker not given here
B24: Phage-3159 (peptide)
peptide: WMAMCKPVWMCEGF
modifications: cysteine pairing not given here; also: fused to phage pIII, orientation and linker not given here
B25: Phage-3166 (peptide)
peptide: LVRVCTPMWMCQGF
modifications: cysteine pairing not given here; also: fused to phage pIII, fusion site not given here
B26: Phage-3157 (peptide)
peptide: QMPMCRPAWMCMGF
modifications: cysteine pairing not given here; also: fused to phage pIII, orientation and linker not given here
B27: Phage-3160 (peptide)
peptide: LALRCEPSWMCLGF
modifications: cysteine pairing not given here; also: fused to phage pIII, orientation and linker not given here

The binders below were run against T1, PSMA Fab (assay: clonal phage ELISA on captured PSMA Fab pre-incubated with PSMA antigen as competitor, anti-M13 HRP detection;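 further: crude clonal phage supernatants tested by ELISA, wells first treated with blocking buffer plus PSMA antigen, bound phage read out via HRP-linked anti-M13 antibody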).
T1 construct: also called Anti-PSMA Fab; 006 PSMA Fab
Procedure: (§1) Clonal phage were harvested as crude supernatants and screened via standard ELISAs. […] Prior to the addition of clonal phage. wells were incubated with blocking buffer and PSMA antigen or blocking buffer alone. Without washing or aspirating, clonal phage supernatants were then added to the wells and incubated for a short time. Wells were then washed followed by detection of bound phage using a horse radish conjugated anti-M13 antibody.

Point of comparison: B14, “phage binding ELISA signal (Anti-PSMA Fab, PSMA antigen present)” value 0.0987. Against it:
- B1 — lower, 0.0959
- B2 — higher, 0.106
- B3 — lower, 0.0821
- B4 — higher, 0.118
- B5 — higher, 0.197
- B6 — lower, 0.0904
- B7 — higher, 0.135
- B8 — lower, 0.072
- B9 — lower, 0.0807
- B10 — lower, 0.0792
- B11 — lower, 0.0629
- B12 — lower, 0.0861
- B13 — lower, 0.0854

These binders were tested against T2, PSMA Fab (006 PSMA Fab) (assay: clonal phage ELISA; biotinylated PSMA Fab on neutravidin plate, blocking buffer alone; anti-M13 HRP detection;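 further: crude clonal phage supernatants added without washing to wells pretreated with blocking buffer with or without PSMA antigen, short incubation, then washed before detecting bound phage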).
T2 construct: also called Anti-PSMA Fab; anti-PSMA Fab
Procedure: as §1

Point of comparison: B17, “Phage binding ELISA signal, Anti-PSMA Fab” value 2.05. Against it:
- B15 — the same, 2.05
- B16 — the same, 2.05

Each binder was assayed against T1, PSMA Fab (assay: clonal phage ELISA on biotinylated PSMA Fab captured on neutravidin plates, anti-M13 HRP detection, blocking buffer alone).
Procedure: as §1

Point of comparison: B13, “Phage binding ELISA signal, Anti-PSMA Fab” value 2.04. Against it:
- B1 — the same, 2.04
- B2 — higher, 2.05
- B3 — higher, 2.05
- B4 — the same, 2.04
- B5 — the same, 2.04
- B6 — higher, 2.05
- B7 — the same, 2.04
- B8 — higher, 2.05
- B9 — higher, 2.05
- B10 — the same, 2.04
- B11 — the same, 2.04
- B12 — higher, 2.05
- B14 — the same, 2.04

Each binder was assayed against T3, PSMA Fab (assay: clonal phage ELISA on biotinylated PSMA Fab captured on neutravidin, anti-M13 HRP detection;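 further: crude clonal phage supernatants added to wells pretreated with PSMA antigen in blocking buffer or with blocking buffer only, then briefly incubated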).
T3 construct: also called Anti-PSMA Fab; 006 PSMA Fab
Procedure: as §1

Point of comparison: B24, “Phage binding ELISA signal, Anti-PSMA Fab” value 2.04. Against it:
- B18 — lower, 2.03
- B19 — lower, 2.03
- B20 — lower, 2.03
- B21 — lower, 2.03
- B22 — lower, 2.03
- B23 — the same, 2.04
- B25 — lower, 2.03
- B26 — the same, 2.04
- B27 — lower, 2.03

What follows are binders tested against T3, PSMA Fab (assay: clonal phage ELISA on captured PSMA Fab pre-incubated with PSMA antigen as competitor;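 further: crude clonal phage supernatants added to wells without washing away the PSMA competitor, bound phage detected by HRP-conjugated anti-M13 antibody, reference wells received blocking buffer only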).
Procedure: as §1

Point of comparison: B26, “Phage binding ELISA signal, Anti-PSMA Fab in presence of PSMA” value 0.105. Against it:
- B18 — lower, 0.0738
- B19 — lower, 0.0702
- B20 — higher, 0.163
- B21 — lower, 0.0692
- B22 — higher, 0.138
- B23 — higher, 0.107
- B24 — higher, 0.163
- B25 — lower, 0.058
- B27 — higher, 0.112

Each binder was assayed against T2, PSMA Fab (006 PSMA Fab) (assay: clonal phage ELISA; biotinylated PSMA Fab on neutravidin plate pre-incubated with PSMA antigen as competitor; anti-M13 HRP detection;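 further: crude clonal phage supernatants briefly incubated on wells preloaded with PSMA antigen in blocking buffer, or buffer only as control, bound phage detected with HRP-conjugated anti-M13 antibody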).
Procedure: as §1

Point of comparison: B16, “Phage binding ELISA signal, Anti-PSMA Fab in presence of PSMA” value 0.0775. Against it:
- B15 — higher, 0.0802
- B17 — higher, 0.0788
